Test results published in doi:10.1101/2020.07.16.206169.
Read-outs that look alike come from different tables or passages of the source.

Assays:
[1] = molecular target: PorZ from Porphyromonas gingivalis (Porphyromonas gingivalis) (UniProt Q9S3Q8); test: MST
[2] = molecular target: PorZ from Porphyromonas gingivalis (Porphyromonas gingivalis) (UniProt Q9S3Q8); test: MST; remark: listed apart in the source

PorU sortase from Porphyromonas gingivalis, hexahistidine-tagged (from UniProt B2RGP6 1-1158) (enzyme)
Kd [1]: 3380 nM | Kd [2]: 672 nM
